Source: patent US20240175877A1

Target: Ara h 2 (peanut) (UniProt Q6PSU2)
Experiment: SPR, Biacore 3000

Chain of Ara h 2 (peanut) (Q6PSU2 23-172): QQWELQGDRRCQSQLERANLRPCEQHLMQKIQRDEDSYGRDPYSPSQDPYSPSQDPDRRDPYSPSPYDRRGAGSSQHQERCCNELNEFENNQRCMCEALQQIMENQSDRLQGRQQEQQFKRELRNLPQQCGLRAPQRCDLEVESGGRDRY

B1: 13BU2T1 (antibody, IgG1, V domains shown)
VH: VESGGGVVQPGASLRLSCVASGFTFRDYSMHWVRQAPGKGLEWMSFIRFDGTTKDYRESVKGRFIISRDDSKNTLYLQMTSLRPEDTARYYCVKDNGWRAFDHWGQGALVIVSS
VL: EIVMTQSPLSLPVTPGEAASISCRSSQSLLHRNGYIYLDWYLQRPGQSPQLLISFVSKRASGAPDRFSGSGSGTDFTLTISRVEAEDFGVYFCMQSLENPWTFGP
Work on B1 yielded a Kd of 4.85 nM.
